Assays:
Type in all cases: biochemical
[1] = tested on: soy protein isolate (SPI); assay: Degree of hydrolysis of pre-hydrolysed soy protein isolate; conditions: 50° C., 20 hr
Protocol: (§1) The degree of hydrolyses (DH) describes the relative amount of cleaved peptides bounds compared to an acid hydrolyses of the same amount of protein conducted e.g. in 6 M HCL at ˜120° C. for ˜24 h. The higher the DH can therefore be applied to assess the efficiency of amino acid liberation of a general PepN such as a PepN 1 or a PepN 2 type. The cell free culture broth was concentrated (10 kDa cut-off, Sartorius, Göttingen, Germany) and desalted applying a disposal desalting column (PD10, GE, Munchen, Germany) as described by the manufacturer. As substrates were pre-hydrolysed 10% (w/w) Na-caseinate (DMK, Germany), whey protein isolate (WPI; Arla, Viby, Denmark), soy protein isolate (SPI; SUPRO® 760, DuPont, Brabrand, Denmark) and gluten suspensions were applied. The pre-hydrolysis was conducted with 1% (w/wprotein) of FOODPRO® Alkaline Protease, 1% (w/wprotein) FOODPRO® PNL for the Na-Caseinate, the WPI as well as the SPI suspension. All pre-hydrolyses were conducted at 55° C. for 18 h followed by an inactivation step at 95° C. for 20 min. Each applied PepN 2 has been inactivated at 95 C for 15 min as a control of the elimination of any carryover of amino acids from the culture broth to the final hydrolyses as well as for the sufficient inactivation of the applied endopeptidases. The hydrolyses were conducted in a 96-well micro titer plate format and consisted of 150 μL of the pre-hydrolyzed protein suspension combined with 50 μL of a PepN 2 stock solution as indicated in Table 1 below. The hydrolyses were conducted at 50° C. for 20 hr, subsequently, the hydrolysis were stopped by the addition of 20 μL 2 M TCA (Trichloroacetic acid, Sigma-Aldrich, Schnelldorf, Germany). The efficiency of the amino acid liberation of the PepN 2 types from Neosartorya fischeri and Aspergillus clavatus can be seen in Table 1 (B) and (A). […] For the gluten hydrolyses, an increased DH was noticed in the protein range from 0.02-0.3 mg/mL PepN 2.

Na-caseinate = assay: Degree of hydrolysis of pre-hydrolysed Na-caseinate; conditions: Casein, 50° C., 20 hr
Protocol: as §1

[2] = tested on: whey protein isolate (WPI); assay: Degree of hydrolysis of pre-hydrolysed whey protein isolate; conditions: 50° C., 20 hr
Protocol: as §1

[3] = Product inhibition of H-Ala-pNA hydrolysis by amino acid inhibitor mix; conditions: pH 9.0, 30° C.
Protocol: Sigma cat # D2650). […] […] and proline were dissolved in DMSO. All other amino acids were dissolved in buffer. […] The reaction was started by adding 20 μL substrate. Only one substrate concentration was used per plate.

gluten = assay: Degree of hydrolysis of pre-hydrolysed gluten; conditions: 50° C., 20 hr
Protocol: as §1

[4] = tested on: peptide WHWLQLKPGQPMY (SEQ ID NO:26); assay: Hydrolysis of proline containing peptide, LC-MS; conditions: peptide 1 mg/mL, aminopeptidase 1 ug/mL, CPB-Buffer, 55° C.; FIG. 5-7
Protocol: The peptide […] (SEQ ID NO:26) was hydrolysed with TRI03 and TRI035. The peptide (1 mg/mL) was incubated with 1 ug/mL of the aminopeptidase in 20 mM CPB-Buffer (20 mM Citric acid, 20 mM Phosphate. 20 mM Boric acid) at 55° C. Aliquots (50 μL) were stopped with 50 rel 5% TFA at the indicated time points and subjected to LC-MS analysis.
Capillary LC-MS/MS analyses were performed using an Agilent 1100 LC system (Agilent Technologies) interfaced to a LTQ Orbitrap Classic hybrid mass spectrometer (Thermo Scientific, Bremen, Germany). Samples were loaded onto a 15 cm Phenomenix Jupiter 4μ Proteo 90A, C4 analytical column. Separation was performed at a flow rate of 16 μL/min using a 10 min gradient of 0-40% Solvent B H2O/CH3CN/HCOOH (50/950/0.65 v/v/v) into the IONMAX® ion source (Thermo Scientific, San Jose). The LTQ Orbitrap Classic instrument was operated in a data-dependent MS/MS mode. The peptide masses were measured by the Orbitrap (MS scans were obtained with a resolution of 60 000 at m/z 400), and up to 2 of the most intense peptide m/z were selected and subjected to fragmentation using CID in the linear ion trap (LTQ). Dynamic exclusion was enabled with a list size of 500 masses, duration of 40 s, and an exclusion mass width of ±10 ppm relative to masses on the list.
The RAW files were accessed with the program Skyline 2.6.0.7176 (MacLean, B., et al., “Skyline: an open source document editor for creating and analyzing targeted proteomics experiments”, Bioinformatics, 2010, 26(7): p. 966-8) which uses the MS1 intensities to build chromatograms (Schilling, B., et al., “Platform-independent and label-free quantitation of proteomic data using MS1 extracted ion chromatograms in skyline: application to protein acetylation and phosphorylation”, Mol Cell Proteomics, 2012. 11(5): p. 202-14). The precursor isotopic import filter was set to a count of three, (M, M+1, and M+2) at a resolution of 60,000 and the most intense charge state was used. Peptide sequences of the substrate as well as cleavage products were typed into Skyline and intensities were calculated in each sample. […]

[5] = inactivated enzyme at the highest conc.

B1: TRI031: fungal aminopeptidase type-2 (pepN_2), NCBI XP_001258675 from Neosartorya fischeri NRRL 181, expressed in Trichoderma reesei (protein)
chain: MQTFGAFLVSFLAASGLAAANGPGWDWKPPVHPKVLPQMIHLWDLMHGAQKLEDFAYAYPERNRVFGGPAHEDTVNYLYRELKKTGYYDVYKQPQVHQWTRADQALTVDGKSYVATTMTYSPSVNVTAPLAVVNNLGCVESDYPADLKGKIALVSRGECPFATKSVLSAKAGAAAALVYNNIEGSMAGTLGGPTSELGPYAPIAGISLADGQALIQMIQAGTVTANLWIDSKVENRTTYNVIAQTKGGDPNNVVALGGHTDSVEAGPGINDDGSGIISNLVVAKALTRFSVKNAVRFCFWTAEEFGLLGSSYYVNSLNATEKAKIRLYLNFDMIASPNYALMIYDGDGSAFNLTGPAGSAQIERLFEDYYKSIRKPFVPTEFNGRSDYEAFILNGIPAGGIFTGAEAIKTEEQAKLFGGQAGVALDANYHAKGDNMTNLNREAFLINSKATAFAVATYANSLDSIPSRNMSTVVKRSQLEQAKKSTPHTHTGGTGCYKDRVEQ
modifications: Synthetic peptide with leader sequence
notes: fungal aminopeptidase type-2 (pepN_2), NCBI XP_001258675 from Neosartorya fischeri NRRL 181, expressed in Trichoderma reesei
Degree of hydrolysis ([1]; PepN 2 stock 0.02 mg/mL): 11%
Degree of hydrolysis ([1]; PepN 2 stock 0.03 mg/mL): 13%
Degree of hydrolysis ([1]; PepN 2 stock 0.04 mg/mL): 14%
Degree of hydrolysis ([1]; PepN 2 stock 0.05 mg/mL): 15%
Degree of hydrolysis ([1]; PepN 2 stock 0.1 mg/mL): 17%
Degree of hydrolysis ([1]; PepN 2 stock 0.15 mg/mL): 18%
Degree of hydrolysis ([1]; PepN 2 stock 0.2 mg/mL): 19%
Degree of hydrolysis ([1]; PepN 2 stock 0.25 mg/mL): 19%
Degree of hydrolysis ([1]; PepN 2 stock 0.3 mg/mL): 19%
Degree of hydrolysis ([1]; PepN 2 stock 0.35 mg/mL): 22%
Degree of hydrolysis [1, 5]: 6%
Degree of hydrolysis (Na-caseinate; PepN 2 stock 0.02 mg/mL): 14%
Degree of hydrolysis (Na-caseinate; PepN 2 stock 0.03 mg/mL): 15%
Degree of hydrolysis (Na-caseinate; PepN 2 stock 0.04 mg/mL): 16%
Degree of hydrolysis (Na-caseinate; PepN 2 stock 0.05 mg/mL): 20%
Degree of hydrolysis (Na-caseinate; PepN 2 stock 0.1 mg/mL): 19%
Degree of hydrolysis (Na-caseinate; PepN 2 stock 0.15 mg/mL): 21%
Degree of hydrolysis (Na-caseinate; PepN 2 stock 0.2 mg/mL): 23%
Degree of hydrolysis (Na-caseinate; PepN 2 stock 0.25 mg/mL): 22%
Degree of hydrolysis (Na-caseinate; PepN 2 stock 0.3 mg/mL): 24%
Degree of hydrolysis (Na-caseinate; PepN 2 stock 0.35 mg/mL): 24%
Degree of hydrolysis (Na-caseinate; [5]): 8%
Degree of hydrolysis ([2]; PepN 2 stock 0.02 mg/mL): 17%
Degree of hydrolysis ([2]; PepN 2 stock 0.03 mg/mL): 19%
Degree of hydrolysis ([2]; PepN 2 stock 0.04 mg/mL): 19%
Degree of hydrolysis ([2]; PepN 2 stock 0.05 mg/mL): 21%
Degree of hydrolysis ([2]; PepN 2 stock 0.1 mg/mL): 23%
Degree of hydrolysis ([2]; PepN 2 stock 0.15 mg/mL): 28%
Degree of hydrolysis ([2]; PepN 2 stock 0.2 mg/mL): 24%
Degree of hydrolysis ([2]; PepN 2 stock 0.25 mg/mL): 26%
Degree of hydrolysis ([2]; PepN 2 stock 0.3 mg/mL): 27%
Degree of hydrolysis ([2]; PepN 2 stock 0.35 mg/mL): 29%
Degree of hydrolysis [2, 5]: 8%
product inhibition compared to TRI063 from A. oryzae [3]: less inhibited by product
Degree of hydrolysis (gluten; PepN 2 stock 0.02 mg/mL): 10%
Degree of hydrolysis (gluten; PepN 2 stock 0.03 mg/mL): 13%
Degree of hydrolysis (gluten; PepN 2 stock 0.04 mg/mL): 15%
Degree of hydrolysis (gluten; PepN 2 stock 0.05 mg/mL): 14%
Degree of hydrolysis (gluten; PepN 2 stock 0.1 mg/mL): 17%
Degree of hydrolysis (gluten; PepN 2 stock 0.15 mg/mL): 18%
Degree of hydrolysis (gluten; PepN 2 stock 0.2 mg/mL): 19%
Degree of hydrolysis (gluten; PepN 2 stock 0.25 mg/mL): 19%
Degree of hydrolysis (gluten; PepN 2 stock 0.3 mg/mL): 21%
Degree of hydrolysis (gluten; PepN 2 stock 0.35 mg/mL): 20%
Degree of hydrolysis (gluten; [5]): 4%
hydrolysis of WHWLQLKPGQPMY to KPGQPMY and further down to QPMY [4]: can hydrolyze

Source: patent publication US11473073B2, “Aminopeptidases for protein hydrolyzates” (DUPONT NUTRITION BIOSCIENCES APS, priority 2015, dated 2022)
